This note sets out measurements from PMC6748613.

What all share (assay): AUC
The target of experiment [1] is bH1 Fab variant W^H33-D^H98-G^H99-S^L30b.
Experiment [2] concerns the target bH1 Fab variant Y^H33-M^H98-M^H99-S^L30b.
For experiment [3], the target named is bH1 Fab variant Y^H33-W^H98-G^H99-S^L30b.
The target of experiment [4] is bH1 Fab variant Y^H33-M^H98-G^H99-S^L30b.
The target in experiment [5] is bH1 Fab variant W^H33-W^H98-G^H99-S^L30b.
Experiment [6] deals with bH1 Fab variant W^H33-M^H98-D^H99-R^L30b.
Experiment [7] addresses bH1 Fab variant Y^H33-D^H98-G^H99-R^L30b.
Experiment [8] deals with bH1 Fab variant Y^H33-F^H98-G^H99-S^L30b.
For experiment [9], the target named is bH1 Fab variant W^H33-W^H98-D^H99-R^L30b.

For orientation: Kd means the equilibrium constant for the complex coming apart. Lower therefore signals tighter binding. In experiment [1], “bH1 Fab variant W^H33-D^H98-G^H99-S^L30b” gave a Kd of 1470 mM and a dimer % at 1 mg/mL of 1.2%. The substance “bH1 Fab variant Y^H33-M^H98-M^H99-S^L30b” came in with a Kd in experiment [2] of 19.9 mM. In [3], “bH1 Fab variant Y^H33-W^H98-G^H99-S^L30b” showed an equilibrium dissociation constant (Kd) of 5.73 mM and a dimer % at 1 mg/mL of 2.8%. For “bH1 Fab variant Y^H33-M^H98-G^H99-S^L30b”, in experiment [4], the Kd stood at 179 mM and the dimer % at 1 mg/mL worked out at 1.4%. In experiment [5], “bH1 Fab variant W^H33-W^H98-G^H99-S^L30b” registered a Kd of 2.68 mM and a dimer % at 1 mg/mL of 1.4%.

As to “bH1 Fab variant W^H33-M^H98-D^H99-R^L30b”, the Kd in experiment [6] worked out at 3.98 mM. As to “bH1 Fab variant Y^H33-D^H98-G^H99-R^L30b”, the equilibrium dissociation constant (Kd) in experiment [7] amounted to 8.94 mM. Consider “bH1 Fab variant Y^H33-F^H98-G^H99-S^L30b”, for which, in [8], the dissociation constant Kd was found to be 1.29 mM and the dimer % at 1 mg/mL amounted to 1%. “bH1 Fab variant W^H33-W^H98-D^H99-R^L30b”: in [9], the Kd was found to be 1.33 mM and the dimer % at 1 mg/mL came out at 1.2%.
